The source of these data is patent US20190119715.

For data set [1], the target named is T1, α-fructosyl hexapeptide (α-fructosyl-valyl-histidyl-leucyl-threonyl-proryl-glutamic acid) (not fully specified).
T1 chain: VHLTPE

Sequence of hemoglobin A1c (HbA1c) (chain, as listed by the source, chain 1 of 2): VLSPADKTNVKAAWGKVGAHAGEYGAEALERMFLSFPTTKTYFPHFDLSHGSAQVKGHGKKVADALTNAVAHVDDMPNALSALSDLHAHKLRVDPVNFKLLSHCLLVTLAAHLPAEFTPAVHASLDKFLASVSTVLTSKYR
Sequence of hemoglobin A1c (HbA1c) (chain, as listed by the source, chain 2 of 2): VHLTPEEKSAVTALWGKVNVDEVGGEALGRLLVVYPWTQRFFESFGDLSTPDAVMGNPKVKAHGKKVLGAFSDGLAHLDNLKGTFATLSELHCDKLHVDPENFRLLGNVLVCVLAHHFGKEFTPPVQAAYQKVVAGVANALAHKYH

B1: CFP-H38-dh2 (CFP-H37 with R64G, F269L) (protein)
chain: MTSNRADTRVIVVGGGGTIGSSTALHLVRSGYAPANITVLDTFEIPSAQSAGHDLNKIMGIDHGNKVNLQMSLEARQMWKEDELFQPFFHNTGRMDCEHTPKGIEKLKKLYQKLHDAGAGLEKTHAWLDNEDEILSKMPLLQRDQIQGWKAIWSQDGGWLAAAKAINAIGQFLKERGVKFGFGGAGSFKQPLFDDEGTTCIGVETADGTKYYADKVVLAAGAWSPTLVDLEDQCCSKAWVYAHIQLTPEEAAEYKGVPVVYNGEFGFFLEPDEFGVIKVCDEFPGFSRFKEHQPYGAPSPKRISVPRSHAKHPTDTYPDASEVSIKKAIATFLPRFQDKELFNRALCWCTDTADSTLLMCEHPKWKNFILATGDSGHSFKILPNVGKYVVELIEGRLPEEMAYQWRWRPGGDALKSRRAAPPKDLADMPGWKHDPKL
As for B1, in data set [1], the Dehydrogenase activity (%) with 1 mM αF6P as substrate, relative to oxidase activity of CFP-H38 = 100 worked out at 8.23%; the OX/DH (%) relative to CFP-H38 = 100 turned out to be 30.7%; the OX/DH (ratio of oxidase to dehydrogenase activity, αF6P as substrate) is 3.43; the Oxidase activity (%) with 1 mM αF6P as substrate, relative to oxidase activity of CFP-H38 = 100 is 28.3%.

B2: CFP-H38 (CFP-T7-H37-R64G), modified amadoriase derived from Coniochaeta sp. (protein)
chain: MTSNRADTRVIVVGGGGTIGSSTALHLVRSGYAPANITVLDTFEIPSAQSAGHDLNKIMGIDHGNKVNLQMSLEARQMWKEDELFQPFFHNTGRMDCEHTPKGIEKLKKLYQKLHDAGAGLEKTHAWLDNEDEILSKMPLLQRDQIQGWKAIWSQDGGWLAAAKAINAIGQFLKERGVKFGFGGAGSFKQPLFDDEGTTCIGVETADGTKYYADKVVLAAGAWSPTLVDLEDQCCSKAWVYAHIQLTPEEAAEYKGVPVVYNGEFGFFFEPDEFGVIKVCDEFPGFSRFKEHQPYGAPSPKRISVPRSHAKHPTDTYPDASEVSIKKAIATFLPRFQDKELFNRALCWCTDTADSTLLMCEHPKWKNFILATGDSGHSFKILPNVGKYVVELIEGRLPEEMAYQWRWRPGGDALKSRRAAPPKDLADMPGWKHDPKL
In the case of B2, in data set [1], the Dehydrogenase activity (%) with 1 mM αF6P as substrate, relative to oxidase activity of CFP-H38 = 100 is 8.94%; the OX/DH (%) relative to CFP-H38 = 100 was found to be 100%; the OX/DH (ratio of oxidase to dehydrogenase activity, αF6P as substrate) amounted to 11.2; the Oxidase activity (%) with 1 mM αF6P as substrate, relative to oxidase activity of CFP-H38 = 100 amounted to 100%.

B3: CFP-H40-dh3 (CFP-H37 with R64G, H99S, L110Y, C280Q) (protein)
chain: MTSNRADTRVIVVGGGGTIGSSTALHLVRSGYAPANITVLDTFEIPSAQSAGHDLNKIMGIDHGNKVNLQMSLEARQMWKEDELFQPFFHNTGRMDCESTPKGIEKLKKYYQKLHDAGAGLEKTHAWLDNEDEILSKMPLLQRDQIQGWKAIWSQDGGWLAAAKAINAIGQFLKERGVKFGFGGAGSFKQPLFDDEGTTCIGVETADGTKYYADKVVLAAGAWSPTLVDLEDQCCSKAWVYAHIQLTPEEAAEYKGVPVVYNGEFGFFFEPDEFGVIKVQDEFPGFSRFKEHQPYGAPSPKRISVPRSHAKHPTDTYPDASEVSIKKAIATFLPRFQDKELFNRALCWCTDTADSTLLMCEHPKWKNFILATGDSGHSFKILPNVGKYVVELIEGRLPEEMAYQWRWRPGGDALKSRRAAPPKDLADMPGWKHDPKL
On to B3, for which, in data set [1], the Dehydrogenase activity (%) with 1 mM αF6P as substrate, relative to oxidase activity of CFP-H40 = 100 amounted to 29%; the OX/DH (%) relative to CFP-H40 = 100 amounted to 7.3%; the OX/DH (ratio of oxidase to dehydrogenase activity, αF6P as substrate) turned out to be 0.45; the Oxidase activity (%) with 1 mM αF6P as substrate, relative to oxidase activity of CFP-H40 = 100 turned out to be 13%.

B4: CFP-H40 (CFP-T7-H37-R64G/L110Y/H99S), modified amadoriase derived from Coniochaeta sp. (protein)
chain: MTSNRADTRVIVVGGGGTIGSSTALHLVRSGYAPANITVLDTFEIPSAQSAGHDLNKIMGIDHGNKVNLQMSLEARQMWKEDELFQPFFHNTGRMDCESTPKGIEKLKKYYQKLHDAGAGLEKTHAWLDNEDEILSKMPLLQRDQIQGWKAIWSQDGGWLAAAKAINAIGQFLKERGVKFGFGGAGSFKQPLFDDEGTTCIGVETADGTKYYADKVVLAAGAWSPTLVDLEDQCCSKAWVYAHIQLTPEEAAEYKGVPVVYNGEFGFFFEPDEFGVIKVCDEFPGFSRFKEHQPYGAPSPKRISVPRSHAKHPTDTYPDASEVSIKKAIATFLPRFQDKELFNRALCWCTDTADSTLLMCEHPKWKNFILATGDSGHSFKILPNVGKYVVELIEGRLPEEMAYQWRWRPGGDALKSRRAAPPKDLADMPGWKHDPKL
Consider B4, for which, in data set [1], the Dehydrogenase activity (%) with 1 mM αF6P as substrate, relative to oxidase activity of CFP-H40 = 100 was 16%; the OX/DH (%) relative to CFP-H40 = 100 is 100%; the OX/DH (ratio of oxidase to dehydrogenase activity, αF6P as substrate) came out at 6.2; the Oxidase activity (%) with 1 mM αF6P as substrate, relative to oxidase activity of CFP-H40 = 100 worked out at 100%.

B5: CFP-H38-dh1 (CFP-H37 with R64G, F269M) (protein)
chain: MTSNRADTRVIVVGGGGTIGSSTALHLVRSGYAPANITVLDTFEIPSAQSAGHDLNKIMGIDHGNKVNLQMSLEARQMWKEDELFQPFFHNTGRMDCEHTPKGIEKLKKLYQKLHDAGAGLEKTHAWLDNEDEILSKMPLLQRDQIQGWKAIWSQDGGWLAAAKAINAIGQFLKERGVKFGFGGAGSFKQPLFDDEGTTCIGVETADGTKYYADKVVLAAGAWSPTLVDLEDQCCSKAWVYAHIQLTPEEAAEYKGVPVVYNGEFGFFMEPDEFGVIKVCDEFPGFSRFKEHQPYGAPSPKRISVPRSHAKHPTDTYPDASEVSIKKAIATFLPRFQDKELFNRALCWCTDTADSTLLMCEHPKWKNFILATGDSGHSFKILPNVGKYVVELIEGRLPEEMAYQWRWRPGGDALKSRRAAPPKDLADMPGWKHDPKL
In the case of B5, in data set [1], the Dehydrogenase activity (%) with 1 mM αF6P as substrate, relative to oxidase activity of CFP-H38 = 100 was determined as 24%; the OX/DH (%) relative to CFP-H38 = 100 amounted to 20%; the OX/DH (ratio of oxidase to dehydrogenase activity, αF6P as substrate) amounted to 2.23; the Oxidase activity (%) with 1 mM αF6P as substrate, relative to oxidase activity of CFP-H38 = 100 was 53.4%.

B6: CFP-H40-dh1 (CFP-H37 with R64G, H99S, L110Y, F269M) (protein)
chain: MTSNRADTRVIVVGGGGTIGSSTALHLVRSGYAPANITVLDTFEIPSAQSAGHDLNKIMGIDHGNKVNLQMSLEARQMWKEDELFQPFFHNTGRMDCESTPKGIEKLKKYYQKLHDAGAGLEKTHAWLDNEDEILSKMPLLQRDQIQGWKAIWSQDGGWLAAAKAINAIGQFLKERGVKFGFGGAGSFKQPLFDDEGTTCIGVETADGTKYYADKVVLAAGAWSPTLVDLEDQCCSKAWVYAHIQLTPEEAAEYKGVPVVYNGEFGFFMEPDEFGVIKVCDEFPGFSRFKEHQPYGAPSPKRISVPRSHAKHPTDTYPDASEVSIKKAIATFLPRFQDKELFNRALCWCTDTADSTLLMCEHPKWKNFILATGDSGHSFKILPNVGKYVVELIEGRLPEEMAYQWRWRPGGDALKSRRAAPPKDLADMPGWKHDPKL
For the protein B6, in data set [1], the Dehydrogenase activity (%) with 1 mM αF6P as substrate, relative to oxidase activity of CFP-H40 = 100 is 16%; the OX/DH (%) relative to CFP-H40 = 100 stood at 21%; the OX/DH (ratio of oxidase to dehydrogenase activity, αF6P as substrate) turned out to be 1.3; the Oxidase activity (%) with 1 mM αF6P as substrate, relative to oxidase activity of CFP-H40 = 100 was found to be 21%.

B7: CFP-H40-dh4 (CFP-H37 with R64G, H99S, L110Y, F269M, C280Q) (protein)
chain: MTSNRADTRVIVVGGGGTIGSSTALHLVRSGYAPANITVLDTFEIPSAQSAGHDLNKIMGIDHGNKVNLQMSLEARQMWKEDELFQPFFHNTGRMDCESTPKGIEKLKKYYQKLHDAGAGLEKTHAWLDNEDEILSKMPLLQRDQIQGWKAIWSQDGGWLAAAKAINAIGQFLKERGVKFGFGGAGSFKQPLFDDEGTTCIGVETADGTKYYADKVVLAAGAWSPTLVDLEDQCCSKAWVYAHIQLTPEEAAEYKGVPVVYNGEFGFFMEPDEFGVIKVQDEFPGFSRFKEHQPYGAPSPKRISVPRSHAKHPTDTYPDASEVSIKKAIATFLPRFQDKELFNRALCWCTDTADSTLLMCEHPKWKNFILATGDSGHSFKILPNVGKYVVELIEGRLPEEMAYQWRWRPGGDALKSRRAAPPKDLADMPGWKHDPKL
Turning to B7, in data set [1], the Dehydrogenase activity (%) with 1 mM αF6P as substrate, relative to oxidase activity of CFP-H40 = 100 turned out to be 5.4%; the OX/DH (%) relative to CFP-H40 = 100 amounted to 5.7%; the OX/DH (ratio of oxidase to dehydrogenase activity, αF6P as substrate) came to 0.35; the Oxidase activity (%) with 1 mM αF6P as substrate, relative to oxidase activity of CFP-H40 = 100 came out at 1.9%.

B8: CFP-H40-dh2 (CFP-H37 with R64G, H99S, L110Y, F269L) (protein)
chain: MTSNRADTRVIVVGGGGTIGSSTALHLVRSGYAPANITVLDTFEIPSAQSAGHDLNKIMGIDHGNKVNLQMSLEARQMWKEDELFQPFFHNTGRMDCESTPKGIEKLKKYYQKLHDAGAGLEKTHAWLDNEDEILSKMPLLQRDQIQGWKAIWSQDGGWLAAAKAINAIGQFLKERGVKFGFGGAGSFKQPLFDDEGTTCIGVETADGTKYYADKVVLAAGAWSPTLVDLEDQCCSKAWVYAHIQLTPEEAAEYKGVPVVYNGEFGFFLEPDEFGVIKVCDEFPGFSRFKEHQPYGAPSPKRISVPRSHAKHPTDTYPDASEVSIKKAIATFLPRFQDKELFNRALCWCTDTADSTLLMCEHPKWKNFILATGDSGHSFKILPNVGKYVVELIEGRLPEEMAYQWRWRPGGDALKSRRAAPPKDLADMPGWKHDPKL
Regarding B8, in data set [1], the Dehydrogenase activity (%) with 1 mM αF6P as substrate, relative to oxidase activity of CFP-H40 = 100 was 5.4%; the OX/DH (%) relative to CFP-H40 = 100 is 23%; the OX/DH (ratio of oxidase to dehydrogenase activity, αF6P as substrate) amounted to 1.4; the Oxidase activity (%) with 1 mM αF6P as substrate, relative to oxidase activity of CFP-H40 = 100 stood at 7.5%.

B9: CFP-H38-dh3 (CFP-H37 with R64G, C280Q) (protein)
chain: MTSNRADTRVIVVGGGGTIGSSTALHLVRSGYAPANITVLDTFEIPSAQSAGHDLNKIMGIDHGNKVNLQMSLEARQMWKEDELFQPFFHNTGRMDCEHTPKGIEKLKKLYQKLHDAGAGLEKTHAWLDNEDEILSKMPLLQRDQIQGWKAIWSQDGGWLAAAKAINAIGQFLKERGVKFGFGGAGSFKQPLFDDEGTTCIGVETADGTKYYADKVVLAAGAWSPTLVDLEDQCCSKAWVYAHIQLTPEEAAEYKGVPVVYNGEFGFFFEPDEFGVIKVQDEFPGFSRFKEHQPYGAPSPKRISVPRSHAKHPTDTYPDASEVSIKKAIATFLPRFQDKELFNRALCWCTDTADSTLLMCEHPKWKNFILATGDSGHSFKILPNVGKYVVELIEGRLPEEMAYQWRWRPGGDALKSRRAAPPKDLADMPGWKHDPKL
For B9, in data set [1], the Dehydrogenase activity (%) with 1 mM αF6P as substrate, relative to oxidase activity of CFP-H38 = 100 is 3.22%; the OX/DH (%) relative to CFP-H38 = 100 came to 2.7%; the OX/DH (ratio of oxidase to dehydrogenase activity, αF6P as substrate) stood at 0.3; the Oxidase activity (%) with 1 mM αF6P as substrate, relative to oxidase activity of CFP-H38 = 100 came to 1%. Besides, in data set [1], the “dehydrogenase activity of a 38.4 mg/ml CFP-H38-dh3 solution” value is 38.4 mg/ml (17.8 U/ml) CFP-H38-dh3 solution and the “dehydrogenase activity of an 8.8 mg/ml CFP-H38-dh3 solution” value was 8.8 mg/ml (4.1 U/ml) CFP-H38-dh3 solution. Also, in the data set with hemoglobin A1c (HbA1c), the “current response on a screen-printed carbon electrode at 83, 166, 249 and 332 µg/ml HbA1c” value is given as “HbA1c was quantified with high accuracy using CFP-H38-dh3”; the “dehydrogenase activity on HbA1c (absorbance at 433 nm, WST-3)” value is given as “a significant increase was observed in the absorbance, compared with the control. That is, it was confirmed that CFP-H38-dh3 exhibited dehydrogenase activity on HbA1c”.
